According to patent publication US20120094898A1, “PEPTIDE DERIVATIVE” (Takeda Pharmaceutical Company Limited, priority 2010, published 2012):
Non-standard residues stand in square brackets, D forms with d. Primed or numbered codes have the meaning given here. *: point of attachment. Acetyl(2-(piperazin-1-yl)) = O=C(CN1CCNCC1)*; 2Nal = N[C@@H](Cc1ccc2ccccc2c1)C(=O)O; Pic(4) = not defined here; NMeA = CN[C@@H](C)C(=O)O; Ahx = NCCCCCC(=O)O

Legend:
human NMUR1 = target: T1, human NMUR1 (Homo sapiens, UniProt Q9HB89); test: Ca influx assay using CHO cells expressing human NMUR1; type: cell-based; settings: CHO cells stably expressing human NMUR1; intracellular Ca elevation, FLIPR Tetra; relative to 1 μM porcine NMU-8; read-out: hNMUR1 EC50
T1 construct: expressed in transfected cells
T1 sequence (Q9HB89 1-426): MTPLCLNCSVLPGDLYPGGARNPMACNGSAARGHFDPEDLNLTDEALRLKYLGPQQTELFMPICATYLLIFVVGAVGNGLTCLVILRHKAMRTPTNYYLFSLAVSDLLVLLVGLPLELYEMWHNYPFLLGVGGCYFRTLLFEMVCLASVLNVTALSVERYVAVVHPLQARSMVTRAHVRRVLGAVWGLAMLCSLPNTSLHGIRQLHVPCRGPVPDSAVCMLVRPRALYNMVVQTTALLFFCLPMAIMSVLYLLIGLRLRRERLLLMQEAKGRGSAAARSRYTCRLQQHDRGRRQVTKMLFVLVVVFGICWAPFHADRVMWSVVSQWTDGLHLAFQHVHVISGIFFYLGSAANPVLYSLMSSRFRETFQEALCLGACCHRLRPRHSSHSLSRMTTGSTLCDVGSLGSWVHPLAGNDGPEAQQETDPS
Protocol: (§1) Ca Influx Assay Using CHO Cells Expressing Human NMUR1 or NMUR2
(§2) CHO cells stably expressing human NMUR1 or NMUR2 (J Biol Chem 275(28), pp. 21068-21074 (2000); and J Biol Chem 275(38), pp. 29528-29532 (2000)) were seeded onto a 384-well black/clear plate (Becton Dickinson) (10,000 cells per well) using nucleic acid-free MEM-α medium (Nikken Bio Medical Laboratory) containing 10% dialyzed blood serum (Gemini Bio Products) and 50 μg/mL gentamycin (Invitrogen), and cultured overnight in 5% carbon dioxide at 37° C. Then, after removal of the medium, the cells were loaded with Calcium Kit-Fluo 4 (Dojindo) containing 0.1% fatty acid-free BSA (Wako) at 37° C. (for 15 minutes). Further, test compounds at each concentration, as well as 1 μmol/L porcine NMU-8 (BACHEM) as a control group, were added to the cells, and an elevation of intracellular Ca concentration was monitored for 3 minutes using a FLIPR Tetra system (Molecular Devices). The agonist activity (%) of each of the test compounds for NMUR was calculated using the following formula: […]
(§3) wherein W represents a fluorescence value based on the intracellular Ca concentration in cells to which each test compound was added; X represents a fluorescence value based on the intracellular Ca concentration in cells to which only 0.1% DMSO was added; and Y represents a fluorescence value based on the intracellular Ca concentration in cells to which 1 μM porcine NMU-8 was added. The EC50 value of each test compound was calculated using Prism 5 (GraphPad).

male C57BL/6J mice = test: Subcutaneous administration test in mice (anorectic activity, food intake); type: in vivo; settings: 600 nmol/kg/day subcutaneous, food intake 1 day after initiation of administration, vs solvent control
Protocol: Subcutaneous Administration Test in Mice Anorectic activity of the test compounds was evaluated by the following method. Each of the test compounds was dissolved in a solvent (physiological saline), and an amount of 600 nmol/kg/day was used. An amount of 2 mL/Kg of an administration liquid obtained by dissolving each test compound in physiological saline was subcutaneously administered to the back of 9- to 10-week-old male C57BL/6J mice (CLEA Japan, Inc.) (at 25° C., having free access to food and water, 12 hours of light period and 12 hours of dark period). After the administration, the mice were returned to breeding cages (individual feeding), pre-weighed food was given, and the food intake 1 day after the initiation of the administration was measured. The food intake was calculated by subtracting the weight of the food remaining from the weight of the food given on the day the administration was initiated. Based on the calculated food intake, the anorectic ratio (%) of each test compound was calculated using the following formula. […] The group where only the solvent was administered as described above was used as a control group. Food Intake Inhibition (%): {(food intake of the control group−food intake of a test compound administration group)/food intake of the control group}×100

human NMUR2 = target: T2, human NMUR2 (Homo sapiens, UniProt Q9GZQ4); test: Ca influx assay using CHO cells expressing human NMUR2; type: cell-based; settings: CHO cells stably expressing human NMUR2; intracellular Ca elevation, FLIPR Tetra; relative to 1 μM porcine NMU-8; read-out: hNMUR2 EC50
T2 construct: expressed in transfected cells
T2 sequence (Q9GZQ4 whole entry): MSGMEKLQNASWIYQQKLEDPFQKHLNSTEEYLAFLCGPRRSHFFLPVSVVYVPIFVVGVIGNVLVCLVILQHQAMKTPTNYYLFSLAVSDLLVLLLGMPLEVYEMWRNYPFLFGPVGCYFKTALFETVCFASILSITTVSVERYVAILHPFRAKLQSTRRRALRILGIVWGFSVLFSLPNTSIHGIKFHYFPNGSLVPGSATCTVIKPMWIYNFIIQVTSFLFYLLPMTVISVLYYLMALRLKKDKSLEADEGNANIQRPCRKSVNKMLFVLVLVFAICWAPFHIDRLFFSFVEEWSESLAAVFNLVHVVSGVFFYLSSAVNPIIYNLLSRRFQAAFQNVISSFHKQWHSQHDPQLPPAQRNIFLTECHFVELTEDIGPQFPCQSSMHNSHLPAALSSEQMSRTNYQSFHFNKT
Protocol: as §1, §2, §3

cynomolgus monkeys = test: Single subcutaneous administration test in monkeys (emetic response); type: in vivo
Protocol: Single Subcutaneous Administration Test in Monkeys
The emetic response induced by the test compounds was evaluated by the following method.
The test compound C was dissolved in physiological saline at a concentration of 1,000 nmol/kg and the test compound D was dissolved in physiological saline at a concentration of 300 nmol/kg, and used separately. An administration liquid obtained by dissolving each test compound in physiological saline was subcutaneously administered to the back of cynomolgus monkeys (2 males and 2 females each, 3 years and 11 months old to 4 years and 4 months old). After the administration, the animals were immediately returned to their individual cages, and videotaped for 10 hours. Vomiting and dry heaves observed during the videotaping were counted. Vomits were counted as the number of instances of vomiting up to 24 hours after the completion of the videotaping.

EC50 (human NMUR1)	EC50 (human NMUR2)	Substance	Food intake Inhibition (male C57BL/6J mice)	No. of vomiting (0-24 h) (cynomolgus monkeys; 300 nmol/kg single subcutaneous, n = 4 (2 males, 2 females))	emetic response (vomiting), result in words (cynomolgus monkeys; single subcutaneous, C 1,000 nmol/kg, D 300 nmol/kg)
> 1000 nM	54 nM	PEG20k(AL)-Pic(4)0,Nal(2)2,NMeAla6-NMU-8 ({PEG20k(AL)-Pic(4)}-Y[2Nal]LFR[NMeA]RN-NH2; reading uncertain) [Compound F, PEG20k(AL)-Pic(4)-Tyr-Nal(2)-Leu-Phe-Arg-NMeAla-Arg-Asn-NH2]	74.3%		
> 1000 nM	39 nM	PEG20k(AL)-PEG(2)0,Nal(2)2,NMeAla6-NMU-8 ({PEG20k(AL)-PEG(2)}-Y[2Nal]LFR[NMeA]RN-NH2) [PEG20k(AL)-PEG(2)-Tyr-Nal(2)-Leu-Phe-Arg-NMeAla-Arg-Asn-NH2]	68.6%		
> 1000 nM	8.8 nM	PEG20k(AL)-NpipAc0,Nal(2)2,Ala6-NMU-8 ({PEG20k(AL)-Acetyl(2-(piperazin-1-yl))}-Y[2Nal]LFRARN-NH2) [Compound D, PEG20k(AL)-NpipAc-Tyr-Nal(2)-Leu-Phe-Arg-Ala-Arg-Asn-NH2]	70.5%	0	prevent vomiting
170 nM	5.9 nM	PEG20k(AL)-Acp0,Nal(2)2,NMeAla6-NMU-8 ({PEG20k(AL)-Ahx}-Y[2Nal]LFR[NMeA]RN-NH2) [Compound G, PEG20k(AL)-Acp-Tyr-Nal(2)-Leu-Phe-Arg-NMeAla-Arg-Asn-NH2]	71.4%		
